T1: PT-AROD (L-arginine oxidase from Pseudomonas sp. TPU 7192) (Pseudomonas putida, UniProt A0A177SH44)
T1 construct: gene AYO28_23740; full length, recombinant in E. coli BL21(DE3) from pET-15b; homooctamer (D4), one FAD per monomer; 4632 residues modelled in octamer (579 per chain)
T1 sequence (A0A177SH44 1-589): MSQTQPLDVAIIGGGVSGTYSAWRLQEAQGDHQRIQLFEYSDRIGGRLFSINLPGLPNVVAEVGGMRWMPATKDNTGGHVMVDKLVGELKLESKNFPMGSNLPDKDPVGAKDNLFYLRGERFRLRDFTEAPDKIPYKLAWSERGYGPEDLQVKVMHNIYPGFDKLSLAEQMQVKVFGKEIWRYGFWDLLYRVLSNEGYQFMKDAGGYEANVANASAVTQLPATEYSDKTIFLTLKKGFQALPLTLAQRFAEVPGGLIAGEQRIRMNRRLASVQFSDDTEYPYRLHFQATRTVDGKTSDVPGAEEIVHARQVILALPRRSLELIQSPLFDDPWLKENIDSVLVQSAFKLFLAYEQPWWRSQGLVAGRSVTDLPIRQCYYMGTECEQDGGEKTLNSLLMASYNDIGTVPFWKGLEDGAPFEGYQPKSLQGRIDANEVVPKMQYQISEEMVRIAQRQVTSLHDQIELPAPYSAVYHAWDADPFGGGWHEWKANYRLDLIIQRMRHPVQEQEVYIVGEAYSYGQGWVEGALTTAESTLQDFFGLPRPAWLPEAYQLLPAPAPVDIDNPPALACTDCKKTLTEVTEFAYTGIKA


Key:
[1] = target: T1, PT-AROD (L-arginine oxidase from Pseudomonas sp. TPU 7192); experiment: cryo-EM ([…] Å) and X-ray crystallography ([…] Å); type: binding; settings: one FAD per monomer; copurified, 0.2 μM FAD in purification buffers
[2] = target: L-arginine oxidase from Pseudomonas sp. TPU 7192 (Pseudomonas sp. TPU 7192); experiment: mass photometry; 0.1 mg/ml in SEC buffer (20 mM HEPES pH 8.0, 50 mM NaCl), on a glass coverslip, 60 s, three repeats; molecular weight in solution
[3] = target: L-arginine oxidase from Pseudomonas sp. TPU 7192 (Pseudomonas sp. TPU 7192); experiment: crystal structure; crystals grown at 20°C from 10 mg/ml protein, 20% w/v PEG 3350, 0.2 M potassium citrate tribasic (pH 8.3); four molecules in the asymmetric unit, octamer made by a symmetry mate
[4] = target: L-arginine oxidase from Pseudomonas sp. TPU 7192 (Pseudomonas sp. TPU 7192); experiment: cryo-EM structure; single-particle analysis, 2.5 mg/ml protein in 20 mM HEPES (pH 8.0), 50 mM NaCl, with bound FAD; D4 symmetry; octamer
[5] = test system: T2, NCCCC[C@H](N)C(=O)O; experiment: peroxidase-coupled colourimetric assay (4-aminoantipyrine/TOOS), non-linear regression; type: biochemical, Pseudomonas putida; settings: 100 mM Tris-HCl pH 7.0, 37 °C, substrate 0-10 mM
T2 construct: full length, recombinant in E. coli BL21(DE3) from pET-15b; homooctamer (D4), one FAD per monomer; 4632 residues modelled in octamer (579 per chain)
Text: (§1) peroxidase-coupled colourimetric assay (4-aminoantipyrine/TOOS), non-linear regression on PT-AROD (L-arginine oxidase from Pseudomonas sp. TPU 7192)

[6] = test system: T3, N=C(N)NCCC[C@H](N)C(=O)O; experiment: as above; type: biochemical, Pseudomonas putida; settings: 100 mM Tris-HCl pH 7.0, 37 °C, substrate 0-2.5 mM
T3 construct: full length, recombinant in E. coli BL21(DE3) from pET-15b; homooctamer (D4), one FAD per monomer; 4632 residues modelled in octamer (579 per chain)
Text: as §1

[7] = substrate: NCCCC[C@H](N)C(=O)O; experiment: as above; type: biochemical, Pseudomonas putida; settings: 100 mM Tris-HCl pH 7.0, 37 °C, substrate 0-10 mM
Text: as §1

[8] = substrate: N=C(N)NCCC[C@H](N)C(=O)O; experiment: as above; type: biochemical, Pseudomonas putida; settings: 100 mM Tris-HCl pH 7.0, 37 °C, substrate 0-2.5 mM
Text: as §1

Row | Molecule | Km [5] [µM] | kcat [5] [s⁻¹] | kcat/Km [5] [M⁻¹ s⁻¹] | Km [6] [µM] | kcat [6] [s⁻¹] | kcat/Km [6] [M⁻¹ s⁻¹] | other results
1 | Cc1cc2nc3c(=O)[nH]c(=O)nc-3n(C[C@H](O)[C@H](O)[C@H](O)COP(=O)(O)OP(=O)(O)OC[C@H]3O[C@@H](n4cnc5c(N)ncnc54)[C@H](O)[C@@H]3O)c2cc1C [FAD] | – | – | – | – | – | – | cryo-EM (2.3 Å) and X-ray crystallography (3.4 Å) [1]: We obtained a cryo-EM map of PT-AROD in complex with FAD
2 | L-arginine oxidase from Pseudomonas sp. TPU 7192 (enzyme) | – | – | – | – | – | – | stoichiometry N [2]: 8; stoichiometry N [3]: 8; stoichiometry N [4]: 8
3 | PT-AROD (L-arginine oxidase from Pseudomonas sp. TPU 7192) (Pseudomonas putida; E486A) | 1200 | 1.1 | 920 | 190 | 3.5 | 18000 | –
4 | PT-AROD (L-arginine oxidase from Pseudomonas sp. TPU 7192) (Pseudomonas putida; Q343E) | 6900 | 0.5 | 72 | 1700 | 10.4 | 6100 | –
5 | PT-AROD (L-arginine oxidase from Pseudomonas sp. TPU 7192) (Pseudomonas putida) (protein, full length, recombinant in E. coli BL21(DE3) from pET-15b; homooctamer (D4), one FAD per monomer; 4632 residues modelled in octamer (579 per chain)) MSQTQPLDVAIIGGGVSGTYSAWRLQEAQGDHQRIQLFEYSDRIGGRLFSINLPGLPNVVAEVGGMRWMPATKDNTGGHVMVDKLVGELKLESKNFPMGSNLPDKDPVGAKDNLFYLRGERFRLRDFTEAPDKIPYKLAWSERGYGPEDLQVKVMHNIYPGFDKLSLAEQMQVKVFGKEIWRYGFWDLLYRVLSNEGYQFMKDAGGYEANVANASAVTQLPATEYSDKTIFLTLKKGFQALPLTLAQRFAEVPGGLIAGEQRIRMNRRLASVQFSDDTEYPYRLHFQATRTVDGKTSDVPGAEEIVHARQVILALPRRSLELIQSPLFDDPWLKENIDSVLVQSAFKLFLAYEQPWWRSQGLVAGRSVTDLPIRQCYYMGTECEQDGGEKTLNSLLMASYNDIGTVPFWKGLEDGAPFEGYQPKSLQGRIDANEVVPKMQYQISEEMVRIAQRQVTSLHDQIELPAPYSAVYHAWDADPFGGGWHEWKANYRLDLIIQRMRHPVQEQEVYIVGEAYSYGQGWVEGALTTAESTLQDFFGLPRPAWLPEAYQLLPAPAPVDIDNPPALACTDCKKTLTEVTEFAYTGIKA | – | – | – | – | – | – | Km [7]: 20000 µM; kcat [7]: 2.7 s⁻¹; kcat/Km [7]: 140 M⁻¹ s⁻¹; Km [8]: 480 µM; kcat [8]: 6.2 s⁻¹; kcat/Km [8]: 13000 M⁻¹ s⁻¹

From PMC11694665, “Open and closed structures of L-arginine oxidase by cryo-electron microscopy and X-ray crystallography” (Journal of Biochemistry, 2024)
